These results are taken from patent US20160171150A1, “Chemical Modulators of Pro-Apoptotic BAX and BCL-2 Polypeptides” (Dana-Farber Cancer Institute, Inc., priority 2008, published 2016).

The test has as its target T1, BAX (Homo sapiens, UniProt Q07812).
T1 construct: Full-length human BAX-encoding cDNA (aa 1-192) was cloned into pTYB1 plasmid; made in house; host or cells: Escherichia coli BL21(DE3)
Briefly: NMR analysis of BIM SAHB binding to BAX. Particulars: 1H-15N correlation spectrum, BIM SAHB titration. The source says:
To investigate the initiating event for BAX activation, the interaction of BAX with the BH3 ligand BIM SAHB was studied. […] BIM SAHB binding to BAX was monitored using Nuclear Magnetic Resonance (NMR) spectroscopy. Compared to the ^1H-^15N correlation spectrum of BAX, the addition of BIM SAHB broadened and shifted select NMR cross-peaks, indicating fast exchange between the bound and unbound conformations of BAX. The overall features of the NMR spectra were quite similar except for significant changes in the loop residues between α1 and α2 upon BIM SAHB binding. […] Significant changes were also observed for the side-chain NH2 of Q28, Q32, and Q52. […]
Screening by NMR is conducted by recording ^1H-^13C filtered-1D experiments of uniformly ^13C-labeled BAX at 25-50 μM concentrations, in the absence and presence of compounds at 50-100 μM concentrations. […] The weighted average chemical shift difference is calculated as √{square root over ({(ΔH)2+(ΔN/5)2}/2)} in p.p.m. and plotted as a function of the residue number of BAX. […] NMR experiments are processed with the NMRPipe spectral analysis package and chemical shifts variations measured with NMRView software. NMR spectra are recorded, for example, at 30° C. on Bruker Avance 600 MHz equipped with a z-shielded gradient, triple resonance cryoprobe.

T1 sequence (Q07812 whole entry, the tested form may be a part): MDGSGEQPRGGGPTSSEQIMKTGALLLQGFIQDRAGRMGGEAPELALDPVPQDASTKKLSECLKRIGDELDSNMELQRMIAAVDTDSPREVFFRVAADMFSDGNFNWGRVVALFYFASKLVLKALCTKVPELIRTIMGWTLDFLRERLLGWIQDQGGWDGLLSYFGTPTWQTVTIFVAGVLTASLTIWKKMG

With “BIM SAHB: hydrocarbon-stapled BIM BH3 peptide (SEQ ID NO:3), Stabilized Alpha-Helix of BCL-2 domain; direct BAX-activating compound”, the “binding to BAX (chemical shift perturbation mapping)” value was “revealed interactions at a discrete subset of BAX residues”.
